Key:
[1] = biological target: T1, CBD-intein-Spacer(S)-TEV site-teriparatide fusion protein
T1 chain: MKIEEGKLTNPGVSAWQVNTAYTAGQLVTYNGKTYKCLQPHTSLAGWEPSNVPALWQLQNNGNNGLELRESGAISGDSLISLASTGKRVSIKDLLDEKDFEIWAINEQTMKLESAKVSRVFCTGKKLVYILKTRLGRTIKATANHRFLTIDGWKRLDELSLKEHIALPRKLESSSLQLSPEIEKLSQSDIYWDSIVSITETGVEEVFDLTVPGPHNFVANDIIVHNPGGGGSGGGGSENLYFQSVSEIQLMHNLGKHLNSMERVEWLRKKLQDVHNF

[2] = biological target: T2, CBD-intein-S-TEV site-liraglutide fusion protein
T2 chain: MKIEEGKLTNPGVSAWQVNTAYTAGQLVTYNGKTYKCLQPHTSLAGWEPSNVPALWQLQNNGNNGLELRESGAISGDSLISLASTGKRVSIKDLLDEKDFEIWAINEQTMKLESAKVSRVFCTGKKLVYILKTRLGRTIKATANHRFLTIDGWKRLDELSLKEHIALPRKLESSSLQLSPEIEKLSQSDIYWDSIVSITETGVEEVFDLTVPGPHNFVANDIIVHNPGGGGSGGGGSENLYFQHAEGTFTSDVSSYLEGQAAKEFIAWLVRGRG

B1: TEV protease (protein)
chain: GESLFKGPRDYNPISSTICHLTNESDGHTTSLYGIGFGPFIITNKHLFRRNNGTLLVQSLHGVFKVKNTTTLQQHLIDGRDMIIIRMPKDFPPFPQKLKFREPQREERICLVTTNFQTKSMSSMVSDTSCTFPSSDGIFWKHWIQTKDGQCGSPLVSTRDGFIVGIHSASNFTNTNNYFTSVPKNFMELLTNQEAQQWVSGWRLNADSVLWGGHKVFMSKPEEPFQPVKEATQLMNELVYSQ
**Q.** Which results are given for B1?
**A.** TEV protease-mediated cleavage of the fusion protein (SDS-PAGE and western blot, pH 8.0 and pH 7.0) [1]: cleavage by the TEV protease resulted in the release of teriparitide; TEV protease-mediated cleavage of the fusion protein (SDS-PAGE, pH 8.0) [2]: cleavage by the TEV protease resulted in the release of liraglutide
